# In paper PMC11551393 (Proceedings of the National Academy of Sciences of the …, 2024):
# Legend:
# [1] = target: T1, Bdf1(372-554) (in the fused complex for cryo-EM) (S. pombe, UniProt Q9Y7N0 372-554); assay: cryo-EM structure
# T1 sequence (looked up): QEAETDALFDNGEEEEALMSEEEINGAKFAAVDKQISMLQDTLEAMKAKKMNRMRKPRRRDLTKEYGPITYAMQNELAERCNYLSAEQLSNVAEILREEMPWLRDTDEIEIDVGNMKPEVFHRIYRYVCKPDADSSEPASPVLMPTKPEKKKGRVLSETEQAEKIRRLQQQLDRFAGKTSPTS
# cryo-EM structure = target: the molecule itself; assay: cryo-EM structure
binder,measurement,setting,value
"Tdk1(211-357) (in the fused complex for cryo-EM) (domain or fragment, S. pombe, UniProt O74876 211-357, looked up) MDEWRKSTDEWRKSTDERLENLLNIVREILDVQRDMRNDLSNLTRKVDRMDMRLSRNNNMIMRSFAQPITEVPFFNGDIPDPNLPRITRIEDIDSLSEENCTRYLKGYGVSYDENDQSLWKRQLAKAVGLTAAYDESYTFSPFSSSE",binding result,[1],binds
same,stoichiometry N,cryo-EM structure,6
